These results are taken from article PMC6373967.

One assay has as its target CD155 (Homo sapiens) (UniProt P15151). Conditions: cited from earlier work.
The target in assay [1] is nectin-1(346t) (human) (UniProt Q15223). Description: SPR; BIAcore 3000, 25°C, HBS-EP pH 7.4; about 2000 RU of nectin-1(346t) or nectin-1(143t) amine-coupled to a CM5 chip; hCD96t flowed at 50 ul/min, 2 min association and 2 min dissociation; 1:1 Langmuir model with drifting baseline, global fit. (In general: Surface plasmon resonance follows binding to a sensor surface in real time, without labels.)

The next assay has as its target nectin-1(143t) (human). The assay is described as above.
Assay [2] concerns the target nectin-1(346t) (human) (UniProt Q15223). Described as above. The source holds these as a separate data set.
The target of a further assay is nectin-1 (Homo sapiens) (UniProt Q15223). Conditions: cited from earlier work.

Where two headings read alike, the source gives them in different places.

One may read the Kd as the concentration at which binding is half-saturated. What is called koff is a measure of how fast the partners let go of each other. A word on the kon: it is a measure of how fast the partners come together.

Sequence of UniProt P15151 (P15151 21-343): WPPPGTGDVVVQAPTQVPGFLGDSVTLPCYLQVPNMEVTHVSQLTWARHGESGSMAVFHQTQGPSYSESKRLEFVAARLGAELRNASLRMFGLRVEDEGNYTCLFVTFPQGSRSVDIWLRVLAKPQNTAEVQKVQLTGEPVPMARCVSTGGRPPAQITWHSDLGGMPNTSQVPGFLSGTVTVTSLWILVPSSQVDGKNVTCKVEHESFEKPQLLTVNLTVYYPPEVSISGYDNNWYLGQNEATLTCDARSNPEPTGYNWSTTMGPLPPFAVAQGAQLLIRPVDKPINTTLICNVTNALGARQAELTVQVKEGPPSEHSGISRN
Sequence of nectin-1 (Q15223 31-355): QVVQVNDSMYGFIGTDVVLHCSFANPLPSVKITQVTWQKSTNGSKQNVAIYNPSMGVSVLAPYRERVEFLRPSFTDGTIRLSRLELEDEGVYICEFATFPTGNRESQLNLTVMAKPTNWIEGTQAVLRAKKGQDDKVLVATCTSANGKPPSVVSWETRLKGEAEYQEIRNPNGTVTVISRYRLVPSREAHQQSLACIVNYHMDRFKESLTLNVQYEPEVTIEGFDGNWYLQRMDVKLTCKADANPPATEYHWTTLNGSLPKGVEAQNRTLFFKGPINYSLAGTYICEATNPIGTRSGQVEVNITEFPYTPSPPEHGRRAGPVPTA

With CD96 (from UniProt P40200), the equilibrium dissociation constant (Kd) in the assay with CD155 (Homo sapiens) is 0.0376 µM.

For hCD96(516t) (domain or fragment), the dissociation constant (Kd) came out at 2.43 µM in the assay with nectin-1(346t) (human) [1], 3.22 µM with nectin-1(143t) (human) and 2.34 µM with nectin-1(346t) (human) [2]. Further, the dissociation rate constant (koff) was determined as 0.0094 s⁻¹ with nectin-1(346t) (human) [1] and 0.012 s⁻¹ with nectin-1(143t) (human). The kon was 3900 M⁻¹ s⁻¹ with nectin-1(346t) (human) [1] and 3200 M⁻¹ s⁻¹ with nectin-1(143t) (human).

With nectin-1 (from UniProt Q15223), the Kd with nectin-1 (Homo sapiens) is 17.5 µM.
